Data set [1] concerns the target T1, CRP (cAMP receptor protein) (Escherichia coli) (UniProt P0ACJ8).
T1 sequence: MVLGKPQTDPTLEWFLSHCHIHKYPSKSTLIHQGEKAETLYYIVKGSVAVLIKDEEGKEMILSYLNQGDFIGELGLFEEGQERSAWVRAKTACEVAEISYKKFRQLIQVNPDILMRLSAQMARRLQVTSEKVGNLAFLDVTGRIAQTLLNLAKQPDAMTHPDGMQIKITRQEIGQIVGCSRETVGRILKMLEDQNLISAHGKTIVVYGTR
Put plainly: EMSA. The note with it: EMSA: 10 nM probe, 1x Beyotime EMSA/Gel-Shift Binding Buffer, 25 C 30 min, 6% PAGE at 4 C in 0.5x TBE + 200 uM cAMP; BLI: 10 mM HEPES, 2 mM MgCl2, 0.1 mM EDTA …. (Mobility shift assays separate free from complexed probe on a gel.)

For data set [2], the system named is CRP (cAMP receptor protein) (Escherichia coli). Put plainly: BLI. The note with it: EMSA: 10 nM probe, 1x Beyotime EMSA/Gel-Shift Binding Buffer, 25 C 30 min, 6% PAGE at 4 C in 0.5x TBE + 200 uM cAMP, BLI: 10 mM HEPES, 2 mM MgCl2, 0.1 mM EDTA ….

On to “AGCCAGTGGCGATAAGCGGAGTCTGCGAGGACGCTTCCTGAAAATCGTCTTTATTGCAGTGAATGACAGGCAAATGCGGAAGCAGCTACGCAAAACGCAACAACTTTGCGCAAAAAGTGTGAGCAAGGGCTACGTCACATGGCCGCGCCGTGTATAATAAGCTCGTATGTAGGCTTTATTTCGCTAATCACATACGAAAGATACTCATGGCTCAAGGCACGCCTTATCGCCACTGGCT (double strand) [spoT promoter probe]”, for which the binding result in data set [1] is listed as “binds”.

For orientation: Kd means the constant that tells how readily two partners part at equilibrium. For relA promoter probe, the Kd in data set [2] (cAMP + (p)ppGpp) worked out at 110 µM; in data set [2] (cAMP, no (p)ppGpp), 13 µM.

The values above are taken from PMC11559003.
